# From patent US20100047255
# Key:
# [1] = target: T1, Use1 purified from bacteria
# T1 chain: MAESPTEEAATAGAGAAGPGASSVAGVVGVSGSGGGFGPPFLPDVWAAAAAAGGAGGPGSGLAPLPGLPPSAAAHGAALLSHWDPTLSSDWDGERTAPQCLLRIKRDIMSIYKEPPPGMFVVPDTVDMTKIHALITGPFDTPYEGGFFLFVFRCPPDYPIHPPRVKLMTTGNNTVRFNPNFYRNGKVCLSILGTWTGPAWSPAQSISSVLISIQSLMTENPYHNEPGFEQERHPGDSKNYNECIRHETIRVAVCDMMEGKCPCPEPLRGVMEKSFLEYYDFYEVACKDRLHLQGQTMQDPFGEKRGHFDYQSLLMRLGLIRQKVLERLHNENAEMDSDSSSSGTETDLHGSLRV
# Chain of GST-Ub, P0CG48 (P0CG48 whole entry, looked up): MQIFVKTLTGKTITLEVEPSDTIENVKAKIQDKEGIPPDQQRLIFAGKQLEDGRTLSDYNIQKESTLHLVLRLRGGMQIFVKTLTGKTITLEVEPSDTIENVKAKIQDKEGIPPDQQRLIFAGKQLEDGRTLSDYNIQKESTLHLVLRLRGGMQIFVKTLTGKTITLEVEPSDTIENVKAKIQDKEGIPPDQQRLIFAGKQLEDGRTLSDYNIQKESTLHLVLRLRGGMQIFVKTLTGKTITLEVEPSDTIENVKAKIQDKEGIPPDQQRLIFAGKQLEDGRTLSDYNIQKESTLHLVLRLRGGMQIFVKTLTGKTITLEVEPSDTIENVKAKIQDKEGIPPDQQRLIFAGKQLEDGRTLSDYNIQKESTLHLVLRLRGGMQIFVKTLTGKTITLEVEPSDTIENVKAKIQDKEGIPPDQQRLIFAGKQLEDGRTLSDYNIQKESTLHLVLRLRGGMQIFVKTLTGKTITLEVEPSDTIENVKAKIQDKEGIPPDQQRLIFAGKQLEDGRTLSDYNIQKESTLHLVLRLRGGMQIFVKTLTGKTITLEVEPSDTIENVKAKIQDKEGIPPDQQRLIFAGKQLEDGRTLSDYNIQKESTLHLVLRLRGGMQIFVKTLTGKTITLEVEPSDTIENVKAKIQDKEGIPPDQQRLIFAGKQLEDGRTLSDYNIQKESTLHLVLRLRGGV
# Chain of GST-Nedd8, Q15843 (Q15843 whole entry, looked up): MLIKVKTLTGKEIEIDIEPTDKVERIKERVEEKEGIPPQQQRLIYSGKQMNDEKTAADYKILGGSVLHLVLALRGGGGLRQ
# Chain of GST-ISG15, P05161 (P05161 1-157): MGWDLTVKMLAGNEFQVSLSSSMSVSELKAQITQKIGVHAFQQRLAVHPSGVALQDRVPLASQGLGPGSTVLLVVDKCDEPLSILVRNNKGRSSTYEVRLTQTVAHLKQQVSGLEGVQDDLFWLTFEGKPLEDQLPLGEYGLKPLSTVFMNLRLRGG
protein,measurement,setting,value
Flag-tagged Uba6 (protein) MEGSEPVAAHQGEKASCSSWGTGSTNKNLPIMSTASVEIDDALYSRQRYVLGDTAMQKMAKSHVFLSGMGGLGLEIAKNLVLAGIKAVTIHDTEKCQAWDLGTNFFLSEDDVVNKRNRAEAVLKHIAELNPYVHVTSSSAPFNETTDLSFLDKYQCVVLTEMKLPLQKKINDFCRSQCPPIKFISADVHGIWSRLFCDFGDEFEVLDTTGEEPKEIFISNITQTNPGIVTCLENHPHKLETGQFLTFREINGMTGLNGSIQQITVISPFSFSIGDTTELEPYLHGGIAVQVKTPKTVFFESLERQLKHPKCLIVDFSNPEAPLEIHTAMLALDQFQEKYSRKPNVGCQQDSEELLKLATSISETLEEKPDVNADIVHWLSWTAQGFLSPLAAAVGGVASQEVLKAVTGKFSPLCQWLYLEAADIVESLGKPECEEFLPRGDRYDALRACIGDTLCQKLQNLNIFLVGCGAIGCEMLKNFALLGVGTSKEKGMITVTDPDLIEKSNLNRQFLFRPHHIQKPKSYTAADATLKINSQIKIDAHLNKVCPTTETIYNDEFYTKQDVIITALDNVEARRYVDSRCLANLRPLLDSGTMGTKGHTEVIVPHLTESYNSHRDPPEEEIPFCTLKSFPAAIEHTIQWARDKFESSFSHKPSLFNKFWQTYSSAEEVLQKIQSGHSLEGCFQVIKLLSRRPRNWSQCVELARLKFEKYFNHKALQLLHCFPLDIRLKDGSLFWQSPKRPPSPIKFDLNEPLHLSFLQNAAKLYATVYCIPFAEEDLSADALLNILSEVKIQEFKPSNKVVQTDETARKPDHVPISSEDERNAIFQLEKAILSNEATKSDLQMAVLSFEKDDDHNGHIDFITAASNPRAKMYSIEPADRFKTKRIAGKIIPAIATTTATVSGLVALEMIKVTGGYPFEAYKNCFLNLAIPIVVFTETTEVRKTKIRNGISFTIWDRWTVHGKEDFTLLDFINAVKEKYGIEPTMVVQGVKMLYVPVMPGHAKRLKLTMHKLVKPTTEKKYVDLTVSFAPDIDGDEDLPGPPVRYYFSHDTD,"charging of purified Use1 (2.5 µM) with increasing Flag-Uba6, 25 µM ubiquitin, 2 mM ATP; result: charged",[1],Charging of purified Use1 by Uba6
same,"activation in vitro, titration of GST-Nedd8, anti-Flag immunoblot; result: not activated","GST-Nedd8, Q15843",Uba6 activated GST-Ub but not GST-Nedd8
same,"activation in vitro, titration of GST-Ub, anti-Flag immunoblot; result: activated","GST-Ub, P0CG48",Uba6 activated GST-Ub but not GST-Nedd8
same,"ubiquitin activation in vitro (non-reducing SDS-PAGE, Coomassie); result: activated","GST-Ub, P0CG48",Uba6 could activate ubiquitin
GST-Ube1L (protein) MDALDASKLLDEELYSRQLYVLGSPAMQRIQGARVLVSGLQGLGAEVAKNLVLMGVGSLTLHDPHPTCWSDLAAQFLLSEQDLERSRAEASQELLAQLNRAVQVVVHTGDITEDLLLDFQVVVLTAAKLEEQLKVGTLCHKHGVCFLAADTRGLVGQLFCDFGEDFTVQDPTEAEPLTAAIQHISQGSPGILTLRKGANTHYFRDGDLVTFSGIEGMVELNDCDPRSIHVREDGSLEIGDTTTFSRYLRGGAITEVKRPKTVRHKSLDTALLQPHVVAQSSQEVHHAHCLHQAFCALHKFQHLHGRPPQPWDPVDAETVVGLARDLEPLKRTEEEPLEEPLDEALVRTVALSSAGVLSPMVAMLGAVAAQEVLKAISRKFMPLDQWLYFDALDCLPEDGELLPSPEDCALRGSRYDGQIAVFGAGFQEKLRRQHYLLVGAGAIGCELLKVFALVGLGAGNSGGLTVVDMDHIERSNLSRQFLFRSQDVGRPKAEVAAAAARGLNPDLQVIPLTYPLDPTTEHIYGDNFFSRVDGVAAALDSFQARRYVAARCTHYLKPLLEAGTSGTWGSATVFMPHVTEAYRAPASAAASEDAPYPVCTVRYFPSTAEHTLQWARHEFEELFRLSAETINHHQQAHTSLADMDEPQTLTLLKPVLGVLRVRPQNWQDCVAWALGHWKLCFHYGIKQLLRHFPPNKVLEDGTPFWSGPKQCPQPLEFDTNQDTHLLYVLAAANLYAQMHGLPGSQDWTALRELLKLLPQPDPQQMAPIFASNLELASASAEFGPEQQKELNKALEVWSVGPPLKPLMFEKDDDSNFHVDFVVAAASLRCQNYGIPPVNRAQSKRIVGQIIPAIATTTAAVAGLLGLELYKVVSGPRPRSAFRHSYLHLAENYLIRYMPFAPAIQTFHHLKWTSWDRLKVPAGQPERTLESLLAHLQEQHGLRVRILLHGSALLYAAGWSPEKQAQHLPLRVTELVQQLTGQAPAPGQRVLVLELSCEGDDEDTAFPPLHYEL,"activation in vitro (SDS-PAGE, Coomassie); result: activated","GST-ISG15, P05161","While it was active toward ISG15, as expected"
same,"activation in vitro (SDS-PAGE, Coomassie); result: not activated","GST-Ub, P0CG48",it failed to activate GST-Ub
Uba3/APPBP1 (protein) chain 1: MADGEEPEKKRRRIEELLAEKMAVDGGCGDTGDWEGRWNHVKKFLERSGPFTHPDFEPSTESLQFLLDTCKVLVIGAGGLGCELLKNLALSGFRQIHVIDMDTIDVSNLNRQFLFRPKDIGRPKAEVAAEFLNDRVPNCNVVPHFNKIQDFNDTFYRQFHIIVCGLDSIIARRWINGMLISLLNYEDGVLDPSSIVPLIDGGTEGFKGNARVILPGMTACIECTLELYPPQVNFPMCTIASMPRLPEHCIEYVRMLQWPKEQPFGEGVPLDGDDPEHIQWIFQKSLERASQYNIRGVTYRLTQGVVKRIIPAVASTNAVIAAVCATEVFKIATSAYIPLNNYLVFNDVDGLYTYTFEAERKENCPACSQLPQNIQFSPSAKLQEVLDYLTNSASLQMKSPAITATLEGKNRTLYLQSVTSIEERTRPNLSKTLKELGLVDGQELAVADVTTPQTVLFKLHFTS chain 2: MAQLGKLLKEQKYDRQLRLWGDHGQEALESAHVCLINATATGTEILKNLVLPGIGSFTIIDGNQVSGEDAGNNFFLQRSSIGKNRAEAAMEFLQELNSDVSGSFVEESPENLLDNDPSFFCRFTVVVATQLPESTSLRLADVLWNSQIPLLICRTYGLVGYMRIIIKEHPVIESHPDNALEDLRLDKPFPELREHFQSYDLDHMEKKDHSHTPWIVIIAKYLAQWYSETNGRIPKTYKEKEDFRDLIRQGILKNENGAPEDEENFEEAIKNVNTALNTTQIPSSIEDIFNDDRCINITKQTPSFWILARALKEFVAKEGQGNLPVRGTIPDMIADSGKYIKLQNVYREKAKKDAAAVGNHVAKLLQSIGQAPESISEKELKLLCSNSAFLRVVRCRSLAEEYGLDTINKDEIISSMDNPDNEIVLYLMLRAVDRFHKQQGRYPGVSNYQVEEDIGKLKSCLTGFLQEYGLSVMVKDDYVHEFCRYGAAEPHTIAAFLGGAAAQEVIKIITKQFVIFNNTYIYSGMSQTSATFQL,activation in vitro (non-reducing gel); result: activated,"GST-Nedd8, Q15843",GST-Nedd8 is activated by Uba3/APPBP1 in vitro
